Measured values: US20160024487

Tests used:
[1] = target: T1, Lys(Dnp)-ATNATFVPRIVGG-Lys(Abz)
T1 chain: KATNATFVPRIVGGK

[2] = target: T2, Lys(Dnp)-ATNATIMPRIVGG-Lys(Abz)
T2 chain: KATNATIMPRIVGGK

[3] = target: T3, Lys(Dnp)-ATNATLVPRIVGG-Lys(Abz)
T3 chain: KATNATLVPRIVGGK

[4] = target: T4, Lys(Dnp)-ATNATLWPRIVGG-Lys(Abz)
T4 chain: KATNATLWPRIVGGK

[5] = target: T5, Lys(Dnp)-ATNATVFPRIVGG-Lys(Abz)
T5 chain: KATNATVFPRIVGGK

[6] = target: T6, Lys(Dnp)-ATNATVKPRIVGG-Lys(Abz)
T6 chain: KATNATVKPRIVGGK

[7] = target: T7, Lys(Dnp)-ATNATVQPRIVGG-Lys(Abz)
T7 chain: KATNATVQPRIVGGK

[8] = target: T8, Lys(Dnp)-ATNATVWPRIVGG-Lys(Abz)
T8 chain: KATNATVWPRIVGGK

[9] = target: T9, Lys(Dnp)-ATNATADPRIVGG-Lys(Abz)
T9 chain: KATNATADPRIVGGK

[10] = target: T10, Lys(Dnp)-ATNATAHPRIVGG-Lys(Abz)
T10 chain: KATNATAHPRIVGGK

[11] = target: T11, Lys(Dnp)-ATNATEMPRIVGG-Lys(Abz)
T11 chain: KATNATEMPRIVGGK

[12] = target: T12, Lys(Dnp)-ATNATEQPRIVGG-Lys(Abz)
T12 chain: KATNATEQPRIVGGK

[13] = target: T13, Lys(Dnp)-ATNATFAPRIVGG-Lys(Abz)
T13 chain: KATNATFAPRIVGGK

[14] = target: T14, Lys(Dnp)-ATNATFLPRIVGG-Lys(Abz)
T14 chain: KATNATFLPRIVGGK

[15] = target: T15, Lys(Dnp)-ATNATFPPRIVGG-Lys(Abz)
T15 chain: KATNATFPPRIVGGK

[16] = target: T16, Lys(Dnp)-ATNATGDPRIVGG-Lys(Abz)
T16 chain: KATNATGDPRIVGGK

[17] = target: T17, Lys(Dnp)-ATNATKGPRIVGG-Lys(Abz)
T17 chain: KATNATKGPRIVGGK

[18] = target: T18, Lys(Dnp)-ATNATKNPRIVGG-Lys(Abz)
T18 chain: KATNATKNPRIVGGK

[19] = target: T19, Lys(Dnp)-ATNATKTPRIVGG-Lys(Abz)
T19 chain: KATNATKTPRIVGGK

[20] = target: T20, Lys(Dnp)-ATNATLDPRIVGG-Lys(Abz)
T20 chain: KATNATLDPRIVGGK

[21] = target: T21, Lys(Dnp)-ATNATMDPRIVGG-Lys(Abz)
T21 chain: KATNATMDPRIVGGK

[22] = target: T22, Lys(Dnp)-ATNATNIPRIVGG-Lys(Abz)
T22 chain: KATNATNIPRIVGGK

[23] = target: T23, Lys(Dnp)-ATNATNNPRIVGG-Lys(Abz)
T23 chain: KATNATNNPRIVGGK

[24] = target: T24, Lys(Dnp)-ATNATNRPRIVGG-Lys(Abz)
T24 chain: KATNATNRPRIVGGK

[25] = target: T25, Lys(Dnp)-ATNATPGPRIVGG-Lys(Abz)
T25 chain: KATNATPGPRIVGGK

[26] = target: T26, Lys(Dnp)-ATNATPMPRIVGG-Lys(Abz)
T26 chain: KATNATPMPRIVGGK

[27] = target: T27, Lys(Dnp)-ATNATPSPRIVGG-Lys(Abz)
T27 chain: KATNATPSPRIVGGK

[28] = target: T28, Lys(Dnp)-ATNATQYPRIVGG-Lys(Abz)
T28 chain: KATNATQYPRIVGGK

[29] = target: T29, Lys(Dnp)-ATNATREPRIVGG-Lys(Abz)
T29 chain: KATNATREPRIVGGK

[30] = target: T30, Lys(Dnp)-ATNATRFPRIVGG-Lys(Abz)
T30 chain: KATNATRFPRIVGGK

[31] = target: T31, Lys(Dnp)-ATNATRGPRIVGG-Lys(Abz)
T31 chain: KATNATRGPRIVGGK

[32] = target: T32, Lys(Dnp)-ATNATRKPRIVGG-Lys(Abz)
T32 chain: KATNATRKPRIVGGK

[33] = target: T33, Lys(Dnp)-ATNATTKPRIVGG-Lys(Abz)
T33 chain: KATNATTKPRIVGGK

[34] = target: T34, Lys(Dnp)-ATNATTLPRIVGG-Lys(Abz)
T34 chain: KATNATTLPRIVGGK

[35] = target: T35, Lys(Dnp)-ATNATVEPRIVGG-Lys(Abz)
T35 chain: KATNATVEPRIVGGK

[36] = target: T36, Lys(Dnp)-ATNATWDPRIVGG-Lys(Abz)
T36 chain: KATNATWDPRIVGGK

[37] = target: T37, Lys(Dnp)-ATNATWEPRIVGG-Lys(Abz)
T37 chain: KATNATWEPRIVGGK

[38] = target: T38, Lys(Dnp)-ATNATWFPRIVGG-Lys(Abz)
T38 chain: KATNATWFPRIVGGK

[39] = target: T39, Lys(Dnp)-ATNATWMPRIVGG-Lys(Abz)
T39 chain: KATNATWMPRIVGGK

[40] = target: T40, Lys(Dnp)-ATNATYAPRIVGG-Lys(Abz)
T40 chain: KATNATYAPRIVGGK

[41] = target: T41, Lys(Dnp)-ATNATYGPRIVGG-Lys(Abz)
T41 chain: KATNATYGPRIVGGK

B1: Human plasma purified Factor Xa (protein)
chain 1: ANSFLEEMKKGHLERECMEETCSYEEAREVFEDSDKTNEFWNKYKDGDQCETSPCQNQGKCKDGLGEYTCTCLEGFEGKNCELFTRKLCSLDNGDCDQFCHEEQNSVVCSCARGYTLADNGKACIPTGPYPCGKQTLER
chain 2: IVGGQECKDGECPWQALLINEENEGFCGGTILSEFYILTAAHCLYQAKRFKVRVGDRNTEQEEGGEAVHEVEVVIKHNRFTKETYDFDIAVLRLKTPITFRMNVAPACLPERDWAESTLMTQKTGIVSGFGRTHEKGRQSTRLKMLEVPYVDRNSCKLSSSFIITQNMFCAGYDTKQEDACQGDSGGPHVTRFKDTYFVTGIVSWGEGCARKGKYGIYTKVTAFLKWIDRSMKTRGLPKAKSHAPEVITSSPLK
For B1, the FXa kcat/KM [1] was 71 M⁻¹ s⁻¹, the FXa kcat/KM [2] was 2100 M⁻¹ s⁻¹ and the FXa kcat/KM [3] was 360 M⁻¹ s⁻¹. It also gave an FXa kcat/KM [4] of 1000 M⁻¹ s⁻¹, an FXa kcat/KM [5] of 54 M⁻¹ s⁻¹ and an FXa kcat/KM [6] of 38 M⁻¹ s⁻¹. The FXa kcat/KM [7] was 250 M⁻¹ s⁻¹ and the FXa kcat/KM [8] was 190 M⁻¹ s⁻¹.

B2: Human plasma purified Factor Xa (Molecular Innovations, Inc) (protein)
chain 1: ANSFLEEMKKGHLERECMEETCSYEEAREVFEDSDKTNEFWNKYKDGDQCETSPCQNQGKCKDGLGEYTCTCLEGFEGKNCELFTRKLCSLDNGDCDQFCHEEQNSVVCSCARGYTLADNGKACIPTGPYPCGKQTLER
chain 2: IVGGQECKDGECPWQALLINEENEGFCGGTILSEFYILTAAHCLYQAKRFKVRVGDRNTEQEEGGEAVHEVEVVIKHNRFTKETYDFDIAVLRLKTPITFRMNVAPACLPERDWAESTLMTQKTGIVSGFGRTHEKGRQSTRLKMLEVPYVDRNSCKLSSSFIITQNMFCAGYDTKQEDACQGDSGGPHVTRFKDTYFVTGIVSWGEGCARKGKYGIYTKVTAFLKWIDRSMKTRGLPKAKSHAPEVITSSPLK
B2 showed an FXa kcat/KM [9] of 56 M⁻¹ s⁻¹, an FXa kcat/KM [10] of 140 M⁻¹ s⁻¹ and an FXa kcat/KM [11] of 13 M⁻¹ s⁻¹. It also gave an FXa kcat/KM [12] of 11 M⁻¹ s⁻¹, an FXa kcat/KM [13] of 130 M⁻¹ s⁻¹ and an FXa kcat/KM [14] of 530 M⁻¹ s⁻¹. The FXa kcat/KM [15] was 6.2 M⁻¹ s⁻¹, the FXa kcat/KM [16] was 73 M⁻¹ s⁻¹ and the FXa kcat/KM [17] was 33 M⁻¹ s⁻¹. For the same protein, the FXa kcat/KM [18] was 64 M⁻¹ s⁻¹, the FXa kcat/KM [19] was 72 M⁻¹ s⁻¹ and the FXa kcat/KM [20] was 1000 M⁻¹ s⁻¹. The FXa kcat/KM [21] was 500 M⁻¹ s⁻¹, the FXa kcat/KM [22] was 38 M⁻¹ s⁻¹ and the FXa kcat/KM [23] was 15 M⁻¹ s⁻¹. For the same protein, the FXa kcat/KM [24] was 220 M⁻¹ s⁻¹, the FXa kcat/KM [25] was 100 M⁻¹ s⁻¹ and the FXa kcat/KM [26] was 990 M⁻¹ s⁻¹. The FXa kcat/KM [27] was 420 M⁻¹ s⁻¹, the FXa kcat/KM [28] was 200 M⁻¹ s⁻¹ and the FXa kcat/KM [29] was 2400 M⁻¹ s⁻¹. It also gave an FXa kcat/KM [30] of 730 M⁻¹ s⁻¹, an FXa kcat/KM [31] of 680 M⁻¹ s⁻¹ and an FXa kcat/KM [32] of 640 M⁻¹ s⁻¹. The FXa kcat/KM [33] was 14 M⁻¹ s⁻¹, the FXa kcat/KM [34] was 140 M⁻¹ s⁻¹ and the FXa kcat/KM [35] was 110 M⁻¹ s⁻¹. The FXa kcat/KM [36] was 16 M⁻¹ s⁻¹, the FXa kcat/KM [37] was 24 M⁻¹ s⁻¹ and the FXa kcat/KM [38] was 49 M⁻¹ s⁻¹. The FXa kcat/KM [39] was 200 M⁻¹ s⁻¹, the FXa kcat/KM [40] was 49 M⁻¹ s⁻¹ and the FXa kcat/KM [41] was 41 M⁻¹ s⁻¹.
